From article PMC9482650, “Quantitative fragmentomics allow affinity mapping of interactomes” (Nature Communications, 2022)
Numbering of substitutions follows the chain as printed.

T1: PDZD2_2, O15018
T1 sequence (O15018 329-429, limits assumed, looked up): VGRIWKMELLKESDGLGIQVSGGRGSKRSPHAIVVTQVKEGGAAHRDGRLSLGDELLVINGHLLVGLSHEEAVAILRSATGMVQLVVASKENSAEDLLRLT

T2: PDZRN3_1, Q9UPQ7
T2 sequence (Q9UPQ7 244-349, limits assumed, looked up): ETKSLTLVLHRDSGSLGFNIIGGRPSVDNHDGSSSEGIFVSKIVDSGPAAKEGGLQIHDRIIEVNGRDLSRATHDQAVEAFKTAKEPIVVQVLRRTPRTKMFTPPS

T3: ARHGAP21, Q5T5U3
T3 sequence (Q5T5U3 45-169, limits assumed, looked up): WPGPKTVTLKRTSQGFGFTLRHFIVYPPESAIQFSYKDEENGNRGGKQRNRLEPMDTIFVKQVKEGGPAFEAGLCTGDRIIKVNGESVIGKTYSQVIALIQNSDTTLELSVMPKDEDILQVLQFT

T4: APBA2_2, Q99767
T4 sequence (Q99767 654-744, limits assumed, looked up): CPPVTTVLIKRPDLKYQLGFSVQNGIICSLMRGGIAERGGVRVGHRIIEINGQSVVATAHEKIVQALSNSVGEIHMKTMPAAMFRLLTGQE

T5: GRIP1_4, Q9Y3R0
T5 sequence (Q9Y3R0 467-571, limits assumed, looked up): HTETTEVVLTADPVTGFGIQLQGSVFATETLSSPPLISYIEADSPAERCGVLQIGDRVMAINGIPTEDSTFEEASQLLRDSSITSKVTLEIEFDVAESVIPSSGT

T6: HTRA4, P83105
T6 sequence (P83105 378-476, limits assumed, looked up): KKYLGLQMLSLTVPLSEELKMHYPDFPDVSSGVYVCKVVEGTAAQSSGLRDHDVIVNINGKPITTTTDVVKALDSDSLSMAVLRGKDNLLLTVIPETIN

T7: NHERF3_4, Q5T2W1
T7 sequence (Q5T2W1 373-468, limits assumed, looked up): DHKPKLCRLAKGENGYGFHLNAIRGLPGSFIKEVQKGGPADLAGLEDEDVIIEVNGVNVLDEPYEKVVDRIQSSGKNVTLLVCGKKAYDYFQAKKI

T8: SNTG2, Q9NY99
T8 sequence (Q9NY99 68-166, limits assumed, looked up): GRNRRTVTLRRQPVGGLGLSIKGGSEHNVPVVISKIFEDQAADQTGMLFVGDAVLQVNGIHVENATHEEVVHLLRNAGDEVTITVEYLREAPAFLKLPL

T9: LIN7B, Q9HAP6
T9 sequence (Q9HAP6 88-185, limits assumed, looked up): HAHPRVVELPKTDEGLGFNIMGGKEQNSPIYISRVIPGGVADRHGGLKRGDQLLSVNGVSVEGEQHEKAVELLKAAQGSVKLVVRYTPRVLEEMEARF

T10: SNTB1, Q13884
T10 sequence (Q13884 107-205, limits assumed, looked up): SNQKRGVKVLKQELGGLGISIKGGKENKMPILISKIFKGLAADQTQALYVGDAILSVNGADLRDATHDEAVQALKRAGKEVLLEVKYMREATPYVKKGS

T11: LIN7C, Q9NUP9
T11 sequence (Q9NUP9 88-185, limits assumed, looked up): T9 sequence (Q9HAP6 88-185, limits assumed, looked up) with A2S, D13E, V35I, V40I, Q65H, S79K, R89K, A96S

T12: LNX2_3, Q8N448
T12 sequence (Q8N448 463-564, limits assumed, looked up): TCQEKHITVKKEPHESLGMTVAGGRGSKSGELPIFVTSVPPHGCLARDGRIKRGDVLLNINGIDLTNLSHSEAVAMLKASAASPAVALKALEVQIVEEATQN


biological target: T1, PDZD2_2, O15018; test: holdup assay; design: key: below the threshold = too weak to quantify, mostly under pKd 3.1 to 4; settings: plain residues with an end cap or a label only (N-terminal biotin on a linker: ado-ado)

| Binder | pKd |
| --- | --- |
| QSLNRMEYIV [JAG1, P78504] | below the threshold |
| VRNLPESEEL [MYOZ3, Q8TDC0] | below the threshold |

biological target: DLG1_3, Q12959; test: holdup assay; design: key: below the threshold = too weak to quantify, mostly under pKd 3.1 to 4; settings: plain residues with an end cap or a label only (N-terminal biotin on a linker: ado-ado)
Sequence (Q12959 457-571): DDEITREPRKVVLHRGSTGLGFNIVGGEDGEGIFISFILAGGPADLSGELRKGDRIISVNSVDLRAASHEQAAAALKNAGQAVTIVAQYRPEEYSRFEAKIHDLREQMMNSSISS

| Binder | pKd |
| --- | --- |
| QSLNRMEYIV [JAG1, P78504] | below the threshold |
| VRNLPESEEL [MYOZ3, Q8TDC0] | below the threshold |

biological target: TJP1_3, Q07157; test: holdup assay; design: key: below the threshold = too weak to quantify, mostly under pKd 3.1 to 4; settings: plain residues with an end cap or a label only (N-terminal biotin on a linker: ado-ado)
Sequence (Q07157 416-512): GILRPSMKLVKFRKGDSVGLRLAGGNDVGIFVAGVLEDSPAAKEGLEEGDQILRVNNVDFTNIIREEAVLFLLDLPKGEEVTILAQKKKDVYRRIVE

| Binder | pKd |
| --- | --- |
| QSLNRMEYIV [JAG1, P78504] | below the threshold |
| VRNLPESEEL [MYOZ3, Q8TDC0] | below the threshold |

biological target: T2, PDZRN3_1, Q9UPQ7; test: holdup assay; design: key: below the threshold = too weak to quantify, mostly under pKd 3.1 to 4; settings: plain residues with an end cap or a label only (N-terminal biotin on a linker: ado-ado)

| Binder | pKd |
| --- | --- |
| QSLNRMEYIV [JAG1, P78504] | below the threshold |
| VRNLPESEEL [MYOZ3, Q8TDC0] | below the threshold |

biological target: Inadl_6, Q8NI35; test: holdup assay; design: key: below the threshold = too weak to quantify, mostly under pKd 3.1 to 4; settings: plain residues with an end cap or a label only (N-terminal biotin on a linker: ado-ado)
Sequence (Q8NI35 1058-1167): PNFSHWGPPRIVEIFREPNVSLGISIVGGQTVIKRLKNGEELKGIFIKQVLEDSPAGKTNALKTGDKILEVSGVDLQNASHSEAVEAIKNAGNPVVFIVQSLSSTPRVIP

| Binder | pKd |
| --- | --- |
| QSLNRMEYIV [JAG1, P78504] | below the threshold |
| VRNLPESEEL [MYOZ3, Q8TDC0] | below the threshold |

biological target: T3, ARHGAP21, Q5T5U3; test: holdup assay; design: key: below the threshold = too weak to quantify, mostly under pKd 3.1 to 4; settings: plain residues with an end cap or a label only (N-terminal biotin on a linker: ado-ado)

| Binder | pKd |
| --- | --- |
| QSLNRMEYIV [JAG1, P78504] | below the threshold |
| VRNLPESEEL [MYOZ3, Q8TDC0] | 3.59 |

biological target: FRMPD2_1, Q68DX3; test: holdup assay; design: key: below the threshold = too weak to quantify, mostly under pKd 3.1 to 4; settings: plain residues with an end cap or a label only (N-terminal biotin on a linker: ado-ado)
Sequence (Q68DX3 770-861): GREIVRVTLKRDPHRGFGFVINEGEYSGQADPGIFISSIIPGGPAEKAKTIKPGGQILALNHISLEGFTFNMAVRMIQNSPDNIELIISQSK

| Binder | pKd |
| --- | --- |
| QSLNRMEYIV [JAG1, P78504] | 3.89 |
| VRNLPESEEL [MYOZ3, Q8TDC0] | below the threshold |

biological target: T4, APBA2_2, Q99767; test: holdup assay; design: key: below the threshold = too weak to quantify, mostly under pKd 3.1 to 4; settings: plain residues with an end cap or a label only (N-terminal biotin on a linker: ado-ado)

| Binder | pKd |
| --- | --- |
| QSLNRMEYIV [JAG1, P78504] | below the threshold |
| VRNLPESEEL [MYOZ3, Q8TDC0] | below the threshold |

biological target: T5, GRIP1_4, Q9Y3R0; test: holdup assay; design: key: below the threshold = too weak to quantify, mostly under pKd 3.1 to 4; settings: plain residues with an end cap or a label only (N-terminal biotin on a linker: ado-ado)

| Binder | pKd |
| --- | --- |
| QSLNRMEYIV [JAG1, P78504] | below the threshold |
| VRNLPESEEL [MYOZ3, Q8TDC0] | below the threshold |

biological target: T6, HTRA4, P83105; test: holdup assay; design: key: below the threshold = too weak to quantify, mostly under pKd 3.1 to 4; settings: plain residues with an end cap or a label only (N-terminal biotin on a linker: ado-ado)

| Binder | pKd |
| --- | --- |
| QSLNRMEYIV [JAG1, P78504] | below the threshold |
| VRNLPESEEL [MYOZ3, Q8TDC0] | 3.94 |

biological target: DLG4_3, P78352; test: holdup assay; design: key: below the threshold = too weak to quantify, mostly under pKd 3.1 to 4; settings: plain residues with an end cap or a label only (N-terminal biotin on a linker: ado-ado)
Sequence (P78352 306-403): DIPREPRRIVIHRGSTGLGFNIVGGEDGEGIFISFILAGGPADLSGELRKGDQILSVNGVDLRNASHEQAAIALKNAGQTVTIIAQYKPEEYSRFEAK

| Binder | pKd |
| --- | --- |
| QSLNRMEYIV [JAG1, P78504] | below the threshold |
| VRNLPESEEL [MYOZ3, Q8TDC0] | below the threshold |

biological target: DLG1_2, Q12959; test: holdup assay; design: key: below the threshold = too weak to quantify, mostly under pKd 3.1 to 4; settings: plain residues with an end cap or a label only (N-terminal biotin on a linker: ado-ado)
Sequence (Q12959 314-412): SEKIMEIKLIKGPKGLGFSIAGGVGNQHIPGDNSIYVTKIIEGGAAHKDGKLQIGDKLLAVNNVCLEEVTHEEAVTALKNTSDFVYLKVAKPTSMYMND

| Binder | pKd |
| --- | --- |
| QSLNRMEYIV [JAG1, P78504] | below the threshold |
| VRNLPESEEL [MYOZ3, Q8TDC0] | below the threshold |

biological target: T7, NHERF3_4, Q5T2W1; test: holdup assay; design: key: below the threshold = too weak to quantify, mostly under pKd 3.1 to 4; settings: plain residues with an end cap or a label only (N-terminal biotin on a linker: ado-ado)

| Binder | pKd |
| --- | --- |
| QSLNRMEYIV [JAG1, P78504] | below the threshold |
| VRNLPESEEL [MYOZ3, Q8TDC0] | below the threshold |

biological target: MAGI2_4, Q86UL8; test: holdup assay; design: key: below the threshold = too weak to quantify, mostly under pKd 3.1 to 4; settings: plain residues with an end cap or a label only (N-terminal biotin on a linker: ado-ado)
Sequence (Q86UL8 772-865): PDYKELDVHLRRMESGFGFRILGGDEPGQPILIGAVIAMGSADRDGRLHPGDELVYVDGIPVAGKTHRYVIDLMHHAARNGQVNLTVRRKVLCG

| Binder | pKd |
| --- | --- |
| QSLNRMEYIV [JAG1, P78504] | 3.87 |
| VRNLPESEEL [MYOZ3, Q8TDC0] | below the threshold |

biological target: LAP2, Q96RT1; test: holdup assay; design: key: below the threshold = too weak to quantify, mostly under pKd 3.1 to 4; settings: plain residues with an end cap or a label only (N-terminal biotin on a linker: ado-ado)
Sequence (Q96RT1 other isoform, or with tags, fused parts or gaps): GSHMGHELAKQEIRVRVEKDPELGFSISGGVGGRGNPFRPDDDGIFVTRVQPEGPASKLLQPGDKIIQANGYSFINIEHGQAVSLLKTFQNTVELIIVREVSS

| Binder | pKd |
| --- | --- |
| QSLNRMEYIV [JAG1, P78504] | below the threshold |
| VRNLPESEEL [MYOZ3, Q8TDC0] | below the threshold |

biological target: T8, SNTG2, Q9NY99; test: holdup assay; design: key: below the threshold = too weak to quantify, mostly under pKd 3.1 to 4; settings: plain residues with an end cap or a label only (N-terminal biotin on a linker: ado-ado)

| Binder | pKd |
| --- | --- |
| QSLNRMEYIV [JAG1, P78504] | below the threshold |
| VRNLPESEEL [MYOZ3, Q8TDC0] | below the threshold |

biological target: Inadl_3, Q8NI35; test: holdup assay; design: key: below the threshold = too weak to quantify, mostly under pKd 3.1 to 4; settings: plain residues with an end cap or a label only (N-terminal biotin on a linker: ado-ado)
Sequence (Q8NI35 359-469): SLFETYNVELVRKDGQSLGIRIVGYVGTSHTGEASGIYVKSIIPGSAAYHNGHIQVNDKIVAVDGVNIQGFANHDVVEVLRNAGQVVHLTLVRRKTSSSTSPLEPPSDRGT

| Binder | pKd |
| --- | --- |
| QSLNRMEYIV [JAG1, P78504] | 5.17 |
| VRNLPESEEL [MYOZ3, Q8TDC0] | below the threshold |

biological target: SCRIB_2, Q14160; test: holdup assay; design: key: below the threshold = too weak to quantify, mostly under pKd 3.1 to 4; settings: plain residues with an end cap or a label only (N-terminal biotin on a linker: ado-ado)
Sequence (Q14160 857-960): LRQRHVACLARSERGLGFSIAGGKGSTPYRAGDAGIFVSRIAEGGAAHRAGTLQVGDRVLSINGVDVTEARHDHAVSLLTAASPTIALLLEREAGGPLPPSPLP

| Binder | pKd |
| --- | --- |
| QSLNRMEYIV [JAG1, P78504] | below the threshold |
| VRNLPESEEL [MYOZ3, Q8TDC0] | below the threshold |

biological target: T9, LIN7B, Q9HAP6; test: holdup assay; design: key: below the threshold = too weak to quantify, mostly under pKd 3.1 to 4; settings: plain residues with an end cap or a label only (N-terminal biotin on a linker: ado-ado)

| Binder | pKd |
| --- | --- |
| QSLNRMEYIV [JAG1, P78504] | below the threshold |
| VRNLPESEEL [MYOZ3, Q8TDC0] | below the threshold |

biological target: LNX1_2, Q8TBB1; test: holdup assay; design: key: below the threshold = too weak to quantify, mostly under pKd 3.1 to 4; settings: plain residues with an end cap or a label only (N-terminal biotin on a linker: ado-ado)
Sequence (Q8TBB1 371-470): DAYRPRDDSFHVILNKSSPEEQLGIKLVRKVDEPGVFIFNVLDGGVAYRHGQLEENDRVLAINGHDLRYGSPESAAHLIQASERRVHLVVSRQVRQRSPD

| Binder | pKd |
| --- | --- |
| QSLNRMEYIV [JAG1, P78504] | 4.51 |
| VRNLPESEEL [MYOZ3, Q8TDC0] | below the threshold |

biological target: T10, SNTB1, Q13884; test: holdup assay; design: key: below the threshold = too weak to quantify, mostly under pKd 3.1 to 4; settings: plain residues with an end cap or a label only (N-terminal biotin on a linker: ado-ado)

| Binder | pKd |
| --- | --- |
| QSLNRMEYIV [JAG1, P78504] | below the threshold |
| VRNLPESEEL [MYOZ3, Q8TDC0] | below the threshold |

biological target: T11, LIN7C, Q9NUP9; test: holdup assay; design: key: below the threshold = too weak to quantify, mostly under pKd 3.1 to 4; settings: plain residues with an end cap or a label only (N-terminal biotin on a linker: ado-ado)

| Binder | pKd |
| --- | --- |
| QSLNRMEYIV [JAG1, P78504] | 3.53 |
| VRNLPESEEL [MYOZ3, Q8TDC0] | below the threshold |

biological target: T12, LNX2_3, Q8N448; test: holdup assay; design: key: below the threshold = too weak to quantify, mostly under pKd 3.1 to 4; settings: plain residues with an end cap or a label only (N-terminal biotin on a linker: ado-ado)

| Binder | pKd |
| --- | --- |
| QSLNRMEYIV [JAG1, P78504] | below the threshold |
| VRNLPESEEL [MYOZ3, Q8TDC0] | below the threshold |

biological target: IL16_4, Q14005; test: holdup assay; design: key: below the threshold = too weak to quantify, mostly under pKd 3.1 to 4; settings: plain residues with an end cap or a label only (N-terminal biotin on a linker: ado-ado)
Sequence (Q14005 1229-1329): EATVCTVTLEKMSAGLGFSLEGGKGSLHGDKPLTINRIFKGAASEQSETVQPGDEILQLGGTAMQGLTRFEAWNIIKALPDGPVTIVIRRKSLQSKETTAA

| Binder | pKd |
| --- | --- |
| QSLNRMEYIV [JAG1, P78504] | below the threshold |
| VRNLPESEEL [MYOZ3, Q8TDC0] | below the threshold |

biological target: LNX1_3, Q8TBB1; test: holdup assay; design: key: below the threshold = too weak to quantify, mostly under pKd 3.1 to 4; settings: plain residues with an end cap or a label only (N-terminal biotin on a linker: ado-ado)
Sequence (Q8TBB1 500-596): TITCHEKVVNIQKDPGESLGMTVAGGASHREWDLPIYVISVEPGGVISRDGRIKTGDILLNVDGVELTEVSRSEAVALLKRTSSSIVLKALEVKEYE

| Binder | pKd |
| --- | --- |
| QSLNRMEYIV [JAG1, P78504] | 3.96 |
| VRNLPESEEL [MYOZ3, Q8TDC0] | below the threshold |
